Assay [1] deals with T1, recombinant biotinylated monomeric Fc fusion of human Folate Receptor 3 (hu FolR3 ECD-AcTev-Fcknob-Avi tag … (human, UniProt P0DOX5 223-449 = IgG part, biotin on the C-terminal Avi tag)).
T1 construct: also called FolR3-Fc
As to the kind of experiment: SPR ProteOn, Fab analyte on immobilized antigen-Fc. As to the method: (§1) Immobilization of antigens (ligand): Recombinant antigens were diluted with PBST (10 mM phosphate, 150 mM sodium chloride pH 7.4, 0.005% Tween 20) to 10 μg/ml, then injected at 30 μl/minute in vertical orientation. Injection of analytes: For ‘one-shot kinetics’ measurements, injection direction was changed to horizontal orientation, two-fold dilution series of purified Fab (varying concentration ranges) were injected simultaneously along separate channels 1-5, with association times of 150 or 200 s, and dissociation times of 200 or 600 s, respectively. Buffer (PBST) was injected along the sixth channel to provide an “in-line” blank for referencing. Association rate constants (kₒₙ) and dissociation rate constants (koff) were calculated using a simple one-to-one Langmuir binding model in ProteOn Manager v3.1 software by simultaneously fitting the association and dissociation sensorgrams. The equilibrium dissociation constant (KD) was calculated as the ratio koff/kₒₙ.

Assay [2] addresses T2, recombinant biotinylated monomeric Fc fusion of human Folate Receptor 2 (hu FolR2 ECD-AcTev-Fcknob-Avi tag … (human, UniProt P0DOX5 223-449 = IgG part, biotin on the C-terminal Avi tag)).
T2 construct: also called FolR2-Fc
As to the kind of experiment: SPR ProteOn, Fab analyte on immobilized antigen-Fc. On the procedure:
as §1

Assay [3] has as its target T3, recombinant biotinylated monomeric Fc fusion of human Folate Receptor 1 (huFolR1 ECD-AcTev-Fcknob-Avi tag … (human, UniProt P0DOX5 223-449 = IgG part, biotin on the C-terminal Avi tag)).
T3 construct: also called huFolR1-Fc; human FolR1-Fc
Put plainly: SPR ProteOn, Fab analyte on immobilized antigen-Fc. On the procedure:
as §1

The target of assay [4] is T4, recombinant biotinylated monomeric Fc fusion of cynomolgus Folate Receptor 1 (cy FolR1 ECD-AcTev-Fcknob-Avi … (cynomolgus, UniProt P0DOX5 223-449 = IgG part, biotin on the C-terminal Avi tag)).
T4 construct: also called cyFolR1-Fc; cyno FolR1
As to the kind of experiment: SPR ProteOn, Fab analyte on immobilized antigen-Fc. As to the method: as §1

Assay [5] concerns the target T3, recombinant biotinylated monomeric Fc …. Put plainly: SPR Biacore, avidity (bivalent, apparent KD), antigen-Fc on SA chip. On the procedure: (§2) All SPR experiments were performed on a Biacore T200 at 25° C. with HBS-EP as running buffer (0.01 M HEPES pH 7.4, 0.15 M NaCl, 3 mM EDTA, 0.005% Surfactant P20, Biacore, GE Healthcare). The molecules used for affinity and avidity determination are described in Table 45.
(§3) Recombinant biotinylated monomeric Fc fusions of human, cynomolgus and murine Folate Receptor 1 (FolR1-Fc) were directly coupled on a SA chip using the standard coupling instruction (Biacore, GE Healthcare). The immobilization level was about 200-300 RU. […] The dissociation was monitored for 240 or 600 seconds. The chip surface was regenerated after every cycle using a double injection of 30 sec 10 mM Glycine-HCl pH 1.5. Bulk refractive index differences were corrected for by subtracting the response obtained on reference flow cell immobilized with recombinant biotinylated murine IL2R Fc fusion (unrelated Fc fused receptor). The binding curves resulting from the bivalent binding of the T cell bispecifics were approximated to a 1:1 Langmuir binding (even though it is a 1:2 binding) and fitted with that model to get an apparent KD representing the avidity of the bivalent binding. The apparent avidity constants for the interactions were derived from the rate constants of the fitting using the Bia Evaluation software (GE Healthcare).
For orientation: Surface plasmon resonance follows binding to a sensor surface in real time, without labels.

The target in assay [6] is T4, recombinant biotinylated monomeric Fc …. Described as above. As to the method:
as §2, §3

Assay [7] addresses T5, human FolR1 expressed on cells (HeLa, SKOV3, HT-29, transfected HEK cells) (human, UniProt P15328 25-234). Put plainly: cell-based or functional assay.
In assay [8] the target is T3, recombinant biotinylated monomeric Fc …. Put plainly: SPR Biacore, affinity (monovalent), antibody captured via anti-Fab. As to the method:
as §2
(§4) For affinity measurement, direct coupling of around 12000 resonance units (RU) of the anti-human Fab specific antibody (Fab capture kit, GE Healthcare) was performed on a CM5 chip at pH 5.0 using the standard amine coupling kit (GE Healthcare). Anti-FolR1 T cell bispecifics were captured at 20 nM with a flow rate of 10 μl/min for 40 sec, the reference flow cell was left without capture. […] The dissociation phase was monitored for 300 s and triggered by switching from the sample solution to HBS-EP. The chip surface was regenerated after every cycle using a double injection of 60 sec 10 mM Glycine-HCl pH 2.1. Bulk refractive index differences were corrected for by subtracting the response obtained on the reference flow cell 1. The affinity constants for the interactions were derived from the rate constants by fitting to a 1:1 Langmuir binding using the Bia Evaluation software (GE Healthcare). For low affinity kinetics with association and dissociation phases too fast to be fitted by the 1:1 Langmuir binding model, the steady state analysis model was applied using the Bia Evaluation software (GE Healthcare). The steady state analysis gives the KD of the binding reaction at equilibrium.

Assay [9] shares this target. As to the kind of experiment: SPR Biacore, avidity (bivalent).
Assay [10] deals with T4, recombinant biotinylated monomeric Fc …. As to the kind of experiment: SPR Biacore, affinity (monovalent), antibody captured via anti-Fab, steady state analysis. As to the method: as §2, §4
For assay [11], the target named is T5, human FolR1 expressed on cells (HeLa, …). Put plainly: cell-based or functional assay. This is another data set of the same source.
In assay [12] the target is T3, recombinant biotinylated monomeric Fc …. Put plainly: SPR Biacore, affinity (monovalent).
Assay [13] addresses T1, recombinant biotinylated monomeric Fc …. As to the kind of experiment: SPR Biacore, single injection on immobilized antigen-Fc. As to the method: (§5) Binding of FolR1 binders as IgG or in the T-cell bispecific format to different recombinant folate receptors (human FolR1, 2 and 3, murine FolR1 and cynomolgus FolR1; all as Fc fusions) was assessed by surface plasmon resonance (SPR). All SPR experiments were performed on a Biacore T200 at 25° C. with HBS-EP as running buffer (0.01 M HEPES pH 7.4, 0.15 M NaCl, 3 mM EDTA, 0.005% Surfactant P20, Biacore, Freiburg/Germany).
(§6) First the anti-FolR1 IgGs were analyzed by single injections (Table 1) to characterize their crossreactivity (to human, murine and cyno FolR1) and specificity (to human FolR1, human FolR2, human FolR3). Recombinant biotinylated monomeric Fc fusions of human, cynomolgus and murine Folate Receptor 1 (FolR1-Fc) or human Folate Receptor 2 and 3 (FolR2-Fc, FolR3-Fc) were directly coupled on a SA chip using the standard coupling instruction (Biacore, Freiburg/Germany). The immobilization level was about 300-400 RU. The IgGs were injected for 60 seconds at a concentration of 500 nM.

The target of assay [14] is T2, recombinant biotinylated monomeric Fc …. The description is as above. On the procedure: as §5, §6
Assay [15] concerns the target T6, recombinant biotinylated monomeric Fc fusion of murine Folate Receptor 1 (mu FolR1 ECD-AcTev-Fcknob-Avitag … (murine, UniProt P0DOX5 223-449 = IgG part, biotin on the C-terminal Avi tag)).
T6 construct: also called muFolR1-Fc; murine FolR1
Described as above. As to the method: as §5, §6

The target of assay [16] is T7, human FolR2 on transfected HEK cells (human, UniProt P14207 17-230).
T7 construct: whole, on cells
T7 sequence (P14207 17-230): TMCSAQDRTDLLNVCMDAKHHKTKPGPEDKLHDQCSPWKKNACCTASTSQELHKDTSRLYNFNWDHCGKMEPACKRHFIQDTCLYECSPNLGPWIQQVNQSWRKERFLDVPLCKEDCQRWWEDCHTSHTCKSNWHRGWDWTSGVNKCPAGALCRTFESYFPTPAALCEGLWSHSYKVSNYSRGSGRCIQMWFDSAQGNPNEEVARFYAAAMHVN
As to the kind of experiment: flow cytometry on transfected HEK cells. (In general: Flow cytometry measures light scatter and fluorescence of single cells or particles in a stream.)

Assay [17] concerns the target T3, recombinant biotinylated monomeric Fc …. Put plainly: SPR Biacore, single injection on immobilized antigen-Fc. On the procedure:
as §5, §6

The target in assay [18] is T4, recombinant biotinylated monomeric Fc …. Described as above. On the procedure:
as §5, §6

By koff is commonly meant the first-order rate constant of dissociation. Usually kon stands for a measure of how fast the partners come together.

Where a chain is given by its changes, count along the chain named. Names may count otherwise.

T5 sequence (P15328 25-234): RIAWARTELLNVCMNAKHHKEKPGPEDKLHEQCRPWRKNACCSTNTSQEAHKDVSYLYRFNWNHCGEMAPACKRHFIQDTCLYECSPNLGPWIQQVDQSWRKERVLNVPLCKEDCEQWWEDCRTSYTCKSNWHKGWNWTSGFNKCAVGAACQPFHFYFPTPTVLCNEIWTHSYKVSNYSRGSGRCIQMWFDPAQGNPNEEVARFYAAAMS

B1: 14E4 Fab (Fab, V domains shown)
VH: not shown
VL: EIVLTQSPGTLSLSPGERATLSCRASQSVSSSYLAWYQQKPGQAPRLLIYGASSRATGIPDRFSGSGSGTDSTLTISRLEPEDFAVYYCQQPTSSPITFGQGTKVEIK
notes: bacterial Fab
For B1, the binding result in assay [1], in assay [2], in assay [3] and in [4] was “no binding” each time.

B2: 16D5 G49S/K53A TCB (2+1 inverted, common light chain) (bispecific antibody, V domains shown)
VH 1: not shown
VL: QTVVTQEPSLTVSPGGTVTLTCGSSTGAVTTSNYANWVQQKPGQAPRGLIGGTNARAPGTPARFSGSLLGGKAALTLSGVQPEDEAEYYCALWYSNLWVFGGGTKLTVL
VH 2: not shown
B2: in assay [5], the Kd amounted to 40 nM, the koff turned out to be 0.00586 s⁻¹ and the on-rate (kon) stood at 132000 M⁻¹ s⁻¹. In [6], the Kd amounted to 70 nM, the koff turned out to be 0.0256 s⁻¹ and the on-rate constant (kon) turned out to be 373000 M⁻¹ s⁻¹. Moreover, in assay [7], the “EC50 of T-cell killing of HT-29, 48 h” value was determined as 1.79 nM; the “EC50 of T-cell killing of Hela, 48 h” value amounted to 0.0005 nM; the “EC50 of T-cell killing of SKov-3, 48 h” value worked out at 0.95 nM. For the same molecule, in [8], the Kd stood at 1700 nM, the koff amounted to 0.0159 s⁻¹ and the kon stood at 9170 M⁻¹ s⁻¹. In assay [9], the “fold lower avidity than 16D5 WT (3 nM)” value came to 13 fold. Moreover, in assay [10], the Kd was determined as 1900 nM. Moreover, in assay [11], the “EC50 of T-cell killing of Hela, 24 h” value was found to be 0.0044 nM and the “EC50 of T-cell killing of SKov-3, 24 h” value was 1.7 nM. Moreover, the “fold lower affinity than 16D5 WT (57 nM)” value in assay [12] is 30 fold.

B3: 16D5 IgG (antibody, V domains shown)
VH: not shown
VL: B2 VL with T2A, Q40E, P46F, A55K, V80A
notes: human IgG1
On to B3, for which the binding result was “no binding (tested: 500 nM)” in [13], “no binding (tested: 500 nM)” in assay [14], “no binding (tested: 500 nM)” in [15] and “no binding” in assay [16].

B4: 19H3 IgG (antibody, V domains shown)
VH: QVQLVQSGAEVKKPGASVKVSCKASGYTFTSYYMHWVRQAPGQGLEWMGIINPSGGSTSYAQKFQGRVTMTRDTSTSTVYMELSSLRSEDTAVYYCARTGWSRWGYMDYWGQGTLVTVSS
VL: B2 VL with T2A, Q40E, P46F, A55K, V80A
notes: human IgG1
For B4, the binding result in assay [13], in [14], in assay [17] and in [18] was “no binding (tested: 500 nM)” each time.

B5: 21A5 IgG (antibody, V domains shown)
VH: not shown
VL: B2 VL with T2A, Q40E, P46F, A55K, V80A
notes: human IgG1
B5: the binding result in assay [14] is recorded as “no binding (tested: 500 nM)”; in assay [15], “no binding (tested: 500 nM)”; in assay [16], “no binding”.

B6: 20G6 IgG (antibody, V domains shown)
VH: B4 VH with T99G, G100E, S102I, W104Y, G105Y, Y106H, M107F
VL: B2 VL with T2A, Q40E, P46F, A55K, V80A
notes: human IgG1
As for B6, the binding result in assay [13], in assay [14], in [17] and in assay [18] was “no binding (tested: 500 nM)” throughout.

(Values after patent publication US20220220224A1 (Hoffmann-La Roche, published 2022).)
